Test [1] deals with T1, Trop-2/FLAG/Fc, fusion protein of Trop-2 extracellular region, FLAG tag and Fc (human).
T1 construct: Expressed in HEK293F; The encoding DNA carries a secretion signal
Kind of test: Western blot, KM4590 as primary antibody, Trop-2/FLAG/Fc in lane 1, non-reducing and reducing SDS-PAGE [a]. How it is done: (§1) Each protein of Trop-2/FLAG/Fc, Mutant A, Mutant B, or Mutant C prepared in this Example 2 was electrophoresed under reducing condition (treatment of samples in the presence of 10 mmol/l DTT at 95° C. for 5 minutes) or non-reducing condition (treatment of samples in the absence of DTT at room temperature for 10 minutes) by an SDS-PAGE method. The proteins in the gel were transferred to polyvinylidene difluoride (PVDF) membrane at 200 mA for 1 hour using a semi-dry method.
(§2) After the blocking of the PVDF membrane was carried out using PBS containing 5% BSA at room temperature for 1 hour, the PVDF membrane was soaked in the primary antibody solution which was prepared with TBST [an aqueous solution which was prepared by diluting Tris buffered saline (10× concentration) (pH 7.4) manufactured by Nakarai Tesque Inc.) ten-fold and further adding 0.1% concentration of 0.05% polyoxyethylene (20) sorbitan monolaurate (manufactured by Wako Pure Chemical Industries, Ltd., equivalent to ICI Inc.'s trademark Tween 20)] comprising 0.1% BSA to react for 1 hour at room temperature or overnight at 4° C.
(§3) Using the imaging system LAS4000 mini (manufactured by Fujifilm), the luminescence images were obtained. […]

Test [2] deals with T2, recombinant human Trop-2/Fc/His fusion protein (manufactured by R&D) (human, UniProt P09758 27-274, limits assumed).
T2 construct: Bought reagent; also called Trop-2/Fc/His chimeric protein; recombinant Trop-2
T2 sequence: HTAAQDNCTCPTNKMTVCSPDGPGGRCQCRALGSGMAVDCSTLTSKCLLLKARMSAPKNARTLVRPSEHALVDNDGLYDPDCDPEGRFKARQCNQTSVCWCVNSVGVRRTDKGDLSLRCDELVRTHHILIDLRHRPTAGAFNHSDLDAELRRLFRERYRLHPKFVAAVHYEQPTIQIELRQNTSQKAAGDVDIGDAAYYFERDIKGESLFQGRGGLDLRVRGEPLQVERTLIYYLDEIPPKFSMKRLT
Kind of test: SPR (Biacore T100), Trop-2/Fc/His captured by Tetra-His antibody, antibody as analyte, Bivalent Analyte model, mean of duplicates. How it is done:
(§4) All the operations described below were carried out using Biacore T100 (manufactured by GE Healthcare Bio-sciences). Tetra-His antibody (manufactured by Qiagen) was immobilized so as to be 12,000 RU (resonance unit) on the CM5 sensor chip (manufactured by GE Healthcare Bio-sciences) using Amine Coupling Kit (manufactured by GE Healthcare Bio-sciences). After recombinant Trop-2/Fc/His fusion proteins (manufactured by R&D) were allowed to be captured on the sensor chip, anti-Trop-2 antibodies which were diluted in five-fold steps, starting from a concentration of 5,000 ng/ml were flowed at 30 μL/min, followed by obtaining sensorgrams at each concentration.
(§5) Using the software for analysis accompanied with the equipment, the results were analyzed based on Bivalent Analyte model to obtain the binding rate constant and the dissociation rate constant for binding of each antibody to a recombinant human Trop-2/Fc/His fusion protein.
(§6) In the same manner described in Example 3(2), the affinity of KM4591 and six kinds of KM4097 humanized antibodies (HV0LV0, HV3aLV0, HV4LV0, HV5LV0, HV10LV2 and HV10LV4) obtained in Example 8 to human Trop-2/Fc/His fusion proteins (manufactured by R&D) were evaluated.
On the technique in general: SPR reads the build-up and loss of mass on a sensor chip optically.

In test [3] the target is T2, recombinant human Trop-2/Fc/His fusion …. The test is described as above. How it is done:
as §4, §5
(1) Binding Activity of Anti-Trop-2 Human Chimeric Antibody to Recombinant Human Trop-2 using Biacore In the same manner described in Example 3, the affinity of KM4591 and cAR47A6.4.2-P to human Trop-2/Fc/His fusion proteins (manufactured by R&D) were measured. ka, kd, and KD (kd/ka) of each antibody are shown in Table 5 (the mean values of duplicate experiments).
This is another data set of the same source.

For test [4] the target is unchanged. As to the kind of experiment: SPR (Biacore T100), Trop-2/Fc/His captured by Tetra-His antibody on CM5 chip, antibody as analyte, Bivalent Analyte model, mean of duplicates. On the procedure: as §4, §5
Test [5] has the same target. Kind of test: SPR (Biacore T100) on captured Trop-2/Fc/His; summary sentence of Table 6. How it is done: as §4, §5, §6
Test [6] shares this target. As to the kind of experiment: competition binding ELISA on immobilised Trop-2/Fc/His; cAR47A6.4.2 varied, competed antibody YY-01 fixed at 0.3 µg/ml [d]. On the procedure:
(§7) Into a 96-well ELISA plate (manufactured by Greiner), 2 μg/ml of a recombinant human Trop-2/Fc/His chimeric protein (manufactured by R&D) was dispensed at 50 μl/well, and allowed to stand at 4° C. overnight for immobilization. After washing the plate with PBS, BSA-PBS was added thereto at 100 μl/well and allowed to stand at room temperature for 1 hour for blocking the active groups.
(§8) After washing the plate with Tween-PBS, a peroxidase-labeled rabbit anti-human IgG antibody (manufactured by American Qualex) was added at 50 μl/well as the second antibody and allowed to stand at room temperature for 1 hour. After washing the plate with Tween-PBS, the ABTS [2,2-Azino-bis(3-Ethyl benzothiazol-6-Sulfonic Acid)ammonium)] substrate solution [1 mmol/l ABTS, 0.1 mol/l citric acid buffer (pH 4.2), 0.1% H₂O₂] was added at 50 μl/well for color development, and the chromogenic reaction was stopped by adding a 5% SDS (Sodium lauryl sulfate) solution at 50 μl/well. Thereafter, the value of the absorbance of OD415 nm was measured by a plate reader Emax (manufactured by Molecular Devices, LLC.).

Test [7] concerns the target T3, Mutant A, Trop-2 extracellular region lacking only domain I, fused to FLAG tag and Fc (human).
T3 construct: Expressed in HEK293F
Kind of test: Western blot, cAR47A6.4.2 as primary antibody, Mutant A in lane 2, non-reducing and reducing SDS-PAGE [b]. On the procedure:
as §1, §2, §3

Test [8] addresses T2, recombinant human Trop-2/Fc/His fusion …. Kind of test: competition binding ELISA on immobilised Trop-2/Fc/His; cAR47A6.4.2 varied, competed antibody MOv16 fixed at 0.3 µg/ml [b]. On the procedure:
as §7, §8
(An ELISA detects its analyte on a solid surface through an enzyme-linked reagent.)

Test [9] concerns the target T4, Mutant B, Trop-2 extracellular region lacking domain I and domain II, fused to FLAG tag and Fc (human).
T4 construct: Expressed in HEK293F
As to the kind of experiment: Western blot, cAR47A6.4.2 as primary antibody, Mutant B in lane 3, non-reducing and reducing SDS-PAGE [b]. How it is done:
as §1, §2, §3
Background: A western blot detects proteins with antibodies after separation by electrophoresis.

The target in test [10] is T1, Trop-2/FLAG/Fc, fusion protein of …. Kind of test: Western blot, cAR47A6.4.2 as primary antibody, Trop-2/FLAG/Fc in lane 1, non-reducing and reducing SDS-PAGE [b]. How it is done: as §1, §2, §3

This note sets out measurements from patent US20120237518A1 (Kyowa Kirin, published 2012).

Numbering of substitutions follows the chain as printed.

T4 sequence (chain, as listed by the source mutant limits assumed): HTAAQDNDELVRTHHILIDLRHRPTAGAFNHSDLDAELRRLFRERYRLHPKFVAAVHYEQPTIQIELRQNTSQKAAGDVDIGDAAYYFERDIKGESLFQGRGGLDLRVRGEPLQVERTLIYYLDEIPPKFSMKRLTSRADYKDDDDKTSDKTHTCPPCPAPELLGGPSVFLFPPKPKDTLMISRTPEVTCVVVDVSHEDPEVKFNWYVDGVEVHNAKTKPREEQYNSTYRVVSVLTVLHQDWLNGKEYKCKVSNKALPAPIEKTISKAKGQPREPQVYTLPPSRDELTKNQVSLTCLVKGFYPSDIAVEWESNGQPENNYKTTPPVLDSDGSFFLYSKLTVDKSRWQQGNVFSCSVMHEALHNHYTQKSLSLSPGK
T3 sequence (chain, as listed by the source mutant limits assumed): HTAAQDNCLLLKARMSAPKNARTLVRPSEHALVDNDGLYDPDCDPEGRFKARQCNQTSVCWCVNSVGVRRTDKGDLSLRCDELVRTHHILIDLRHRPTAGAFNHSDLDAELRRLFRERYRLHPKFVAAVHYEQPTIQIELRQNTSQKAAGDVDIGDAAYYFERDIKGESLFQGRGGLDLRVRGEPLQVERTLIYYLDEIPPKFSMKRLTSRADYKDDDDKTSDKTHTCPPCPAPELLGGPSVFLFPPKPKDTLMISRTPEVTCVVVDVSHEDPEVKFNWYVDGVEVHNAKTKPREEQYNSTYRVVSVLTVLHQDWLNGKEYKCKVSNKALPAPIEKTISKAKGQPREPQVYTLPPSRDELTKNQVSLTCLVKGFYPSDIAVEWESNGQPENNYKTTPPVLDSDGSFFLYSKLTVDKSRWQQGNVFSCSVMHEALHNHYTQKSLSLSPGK

B1: anti-Trop-2 human chimeric antibody KM4590 (antibody, human IgG1, V domains shown)
VH: QVQLQQSGPELVRPGTSVRISCKASGYTFTIYWLGWVKQRPGHGLEWIGNIFPGSAYINYNEKFKGKATLTADTSSSTAYMQLSSLTSEDSAVYFCAREGSNSGYWGQGTTLTVSS
VL: DIVMTQSPSSLSVSAGEKVTMTCKSSQSLLNSGNQQNYLAWYQQKPGQPPKLLIYGASTRESGVPDRFTGSGSGTDFTLTINSVQAEDLAVYYCQSDHIYPYTFGGGTKLEIK
notes: KM4097 variable regions joined to human IgG1 H chain constant region and human kappa L chain constant region (pKANTEX93); made in CHO/DG44 cells, fucose content 100%
B1: in test [1], the binding result is recorded as “binds”.

B2: anti-Trop-2 human chimeric antibody KM4591 (antibody, human IgG1, V domains shown)
VH: B1 VH
VL: B1 VL
notes: Same polypeptides as KM4590 (human IgG1, kappa), made in FUT8 knockout CHO/DG44 cells, fucose content 0%
In the case of B2, in [2], the Kd was determined as 0.36 nM; the koff (as a rule, the rate constant with which the complex falls apart) stood at 0.000113 s⁻¹; the kon (usually a measure of how fast the partners come together) stood at 323000 M⁻¹ s⁻¹. In addition, in [3], the Kd was determined as 0.143 nM, the dissociation rate constant (koff) was found to be 5.8e-05 s⁻¹ and the on-rate constant (kon) turned out to be 416000 M⁻¹ s⁻¹.

B3: anti-Trop-2 mouse monoclonal antibody KM4097 (antibody, V domains shown)
VH: B1 VH
VL: B1 VL
As to B3, in test [4], the Kd is 0.261 nM, the off-rate (koff) was 0.000101 s⁻¹ and the on-rate (kon) was determined as 389000 M⁻¹ s⁻¹.

B4: KM4097 humanized antibody HV10LV4 (antibody, V domains shown)
VH: QVQLVQSGPEVVKPGASVKISCKASGYTFTIYWLGWVKQAPGQGLEWIGNIFPGSAYINYNEKFKGKATLTADTSTSTAYMELSSLRSEDTAVYFCAREGSNSGYWGQGTLLTVSS
VL: B1 VL with S9D, S12A, K18R, T22N, T69S, N82S, L89V, G106Q
notes: Expressed from pKANTEX93 (human constant regions) in FUT8 knockout CHO cells; no fucose attached
For the molecule B4, in test [2], the Kd turned out to be 0.37 nM, the off-rate (koff) amounted to 0.000116 s⁻¹ and the kon came out at 342000 M⁻¹ s⁻¹. Further, in test [5], the Kd was no more than 0.5 nM.

B5: KM4097 humanized antibody HV0LV0 (antibody, V domains shown)
VH: B4 VH with P9A, V12K, I20V, K38R, I48M, K67R, A68V, L70I, F95Y, L112V
VL: DIVMTQSPDSLAVSLGERATINCKSSQSLLNSGNQQNYLAWYQQKPGQPPKLLIYGASTRESGVPDRFSGSGSGTDFTLTISSLQAEDVAVYYCQSDHIYPYTFGQGTKLEIK
notes: as for B4
Regarding B5, in test [2], the Kd was 0.53 nM, the off-rate constant (koff) was 0.00016 s⁻¹ and the kon is 330000 M⁻¹ s⁻¹. In addition, the Kd in [5] was no more than 1 nM.

B6: KM4097 humanized antibody HV3aLV0 (antibody, V domains shown)
VH: B4 VH with V12K, I20V, K38R, I48M, A68V, L70I, L112V
VL: B5 VL
notes: as for B4
With B6, in test [2], the Kd was 0.3 nM, the off-rate (koff) worked out at 0.00016 s⁻¹ and the kon amounted to 506000 M⁻¹ s⁻¹. Also, the Kd in test [5] is no more than 0.5 nM.

B7: KM4097 humanized antibody HV5LV0 (antibody, V domains shown)
VH: B4 VH with P9A, V12K, I20V, L70I, L112V
VL: B5 VL
notes: as for B4
Regarding B7, in [2], the Kd came to 0.49 nM, the koff came to 0.00019 s⁻¹ and the kon came out at 383000 M⁻¹ s⁻¹. Also, the Kd in test [5] is no more than 0.5 nM.

B8: KM4097 humanized antibody HV10LV2 (antibody, V domains shown)
VH: B4 VH
VL: B5 VL with A19V, L84V
notes: as for B4
As to B8, in [2], the Kd was 0.4 nM, the koff came out at 0.000148 s⁻¹ and the kon turned out to be 375000 M⁻¹ s⁻¹. For the same molecule, the Kd in test [5] is no more than 0.5 nM.

B9: KM4097 humanized antibody HV4LV0 (antibody, V domains shown)
VH: B4 VH with V12K, I20V, K67R, A68V, L70I, L112V
VL: B5 VL
notes: as for B4
For B9, in test [2], the Kd was 0.42 nM, the koff was found to be 0.000126 s⁻¹ and the on-rate constant (kon) stood at 335000 M⁻¹ s⁻¹. Besides, in test [5], the Kd was no more than 0.5 nM.

B10: cAR47A6.4.2, human IgG1 chimeric antibody of anti-Trop-2 mouse monoclonal antibody AR47A6.4.2 (antibody, V domains shown)
VH: QIQLVQSGPELKKPGETVKISCKASGYTFTNYGMNWVKQAPGKGLKWMGWINTKTGEPTYAEEFKGRFAFSLETSASTAYLQINNLKKEDTATYFCGRGGYGSSYWYFDVWGAGTTVTVSS
VL: DIVMTQSHKFMSTSVGDRVSITCKASQDVSIAVAWYQQKPGQSPKVLIYSASYRYTGVPDRFTGSGSGTDFTFTISRVQAEDLAVYYCQQHYITPLTFGAGTKLELK
notes: Variable regions of AR47A6.4.2 with human IgG1 constant region (pKANTEX93), made in CHO/DG44 cells, fucose content 100%
With B10, the “IC50 (read off the curve)” value in test [6] is roughly 3 µg/mL; in [8], roughly 4 µg/mL. In addition, the binding result in test [7], in test [9] and in [10] was “binds” throughout.

B11: cAR47A6.4.2-P, defucosylated human IgG1 chimeric antibody of AR47A6.4.2 (antibody, V domains shown)
VH: B10 VH
VL: B10 VL
modifications: No core fucose on the Fc N-glycan (made in FUT8 knockout CHO/DG44 cells); the letters do not carry this.
Regarding B11, in test [3], the Kd was 1.01 nM, the koff was 0.000218 s⁻¹ and the on-rate constant (kon) is 221000 M⁻¹ s⁻¹.
